Experimental data as given in US20060257880A1, “Gastric and prostate cancer associated antigens” (THE NOTTINGHAM TRENT UNIVERSITY, priority 2003, published 2006).

Tests used:
[1] = test system: prostate cancer patients' sera; assay: Modified SEREX immunoscreening of T21 clone against prostate cancer patients' sera; type: binding, human; parameters: key to Sera reactivity: +: sera reactivity observed; −: no sera reactivity observed
Excerpt: (§1) The SEREX approach allows an unbiased search for an antibody response and the direct molecular definition of immunogenic tumour proteins based on their reactivity with allogeneic patient sera. In this approach, a prokaryotically expressed cDNA library constructed from normal human testes was immunoscreened with absorbed and diluted patients' sera for the detection of tumour antigens that have elicited a high-titer immunoglobulin (Ig) G humoral response. Such a humoral response implies T-cell recognition of the detected antigens by helper T cells. […] The SEREX approach can then be modified and used to determine the reactivity of identified antigens with panels of human sera including prostate cancer patient sera and normal donor sera.
(§2) The reactivity of promising positive clones against patient and normal donor serum was determined by immunoscreening the clones against and allogeneic panel of 10 prostate cancer patients' sera and 10 healthy donor patients' sera. The methodology used was the same as the SEREX methodology (described above) with the following modifications: The positive clone (T21) and a negative clone (blue phage) were plated out on a small LB agar plate at a ratio of 1:2 to give a titre of approximately 600 pfu/plate. The steps for detection of false positives, subcloning and retesting were not necessary. Following expression overnight, plaque expression and transferral of the plaques to nitrocellulose membranes, the nitrocellulose membranes were incubated with the individual serum and colour developed as described previously. The results would then be recorded simply as being positive (plaques visible) or negative (no plaques visible).
(§3) Immune recognition of identified gene products in prostate cancer patients. To assess the frequency of antibody responses against T21 in sera from normal individuals and prostate cancer patients, 10 prostate cancer patient sera and 10 normal adult sera were screened using a modified immunoscreening procedure.

[2] = test system: normal individual sera; assay: Modified SEREX immunoscreening of T21 clone against normal individual sera; type: binding, human; parameters: key to Sera reactivity: +: sera reactivity observed; −: no sera reactivity observed
Excerpt: as §1, §2, §3

B1: T21: SEREX-identified cancer-testis antigen clone; cDNA encodes a putative 535 amino acid protein (SEQ. ID. 3) (protein, listed as Homo sapiens)
chain: MSEAQSKNEIIAQEFLIKEAECRNADIELEHHRSQAEQNEFLSRELIEKERDLERSRTVIAKFQNKLKELVEENKQLEEGMKEILQAIKEMQKDPDVKGGETSLIIPSLERLVNAIESKNAEGIFDASLHLKAQVDQLTGRNEELRQELRESRKEAINYSQQLAKANLKIDHLEKETSLLRQSEGSNVVFKGIDLPDGIAPSSASIINSQNEYLIHLLQELENKEKKLKNLEDSLEDYNRKFAVIRHQQSLLYKEYLSEKETWKTESKTIKEEKRKLEDQVQQDAIKVKEYNNLLNALQMDSDEMKKILAENSRKITVLQVNEKSLIRQYTTLVELERQLRKENEKQKNELLSMEAEVCEKIGCLQRFKEMAIFKIAALQKVVDNSVSLSELELANKQYNELTAKYRDILQKDNMLVQRTSNLEHLECENISLKEQVESINKELEITKEKLHTIEQAWEQETKLGNESSMDKAKKSITNSDIVSISKKITMLEMKELNERQRAEHCQKMYEHLRTSLKQMEERNFELETKFAEV
Antibody response against T21 in sera (in words) ([1]; 10 prostate cancer patient sera): reacted exclusively with allogeneic sera obtained from prostate cancer patients
Sera reactivity, reactive sera / sera tested ([1]; panel of 10 prostate cancer patients sera): 4/10
Sera reactivity ([1]; prostate cancer patient serum 27): +
Sera reactivity ([1]; prostate cancer patient serum 29): −
Sera reactivity ([1]; prostate cancer patient serum 32): −
Sera reactivity ([1]; prostate cancer patient serum 33): −
Sera reactivity ([1]; prostate cancer patient serum 34): +
Sera reactivity ([1]; prostate cancer patient serum 36): −
Sera reactivity ([1]; prostate cancer patient serum 37): −
Sera reactivity ([1]; prostate cancer patient serum 38): +
Sera reactivity ([1]; prostate cancer patient serum 39): +
Sera reactivity ([1]; prostate cancer patient serum 48): −
Antibody response against T21 in sera (in words) ([2]; 10 normal adult sera): not with sera from healthy individuals
Sera reactivity ([2]; normal individual serum 1): −
Sera reactivity ([2]; normal individual serum 2): −
Sera reactivity ([2]; normal individual serum 3): −
Sera reactivity ([2]; normal individual serum 5): −
Sera reactivity ([2]; normal individual serum 12): −
Sera reactivity ([2]; normal individual serum 13): −
Sera reactivity ([2]; normal individual serum 14): −
Sera reactivity ([2]; normal individual serum 19): −
Sera reactivity ([2]; normal individual serum 20): −
Sera reactivity ([2]; normal individual serum 21): −
Sera reactivity, reactive sera / sera tested ([2]; panel of 10 normal donor sera): 0/10
